Bounds are passed on as bounds.

Common to all, as to conditions: remark: other sources report otherwise
Experiment [1] addresses prefusion-stabilized S trimer of the Delta variant (SARS-CoV-2), P0DTC2.
In experiment [2] the target is prefusion-stabilized S trimer of the Omicron (B.1.529) variant (SARS-CoV-2), P0DTC2.
Experiment [3] addresses S1 monomer of SARS-CoV-2 Delta (SARS-CoV-2), P0DTC2.

B1: 3-31 (Fc fusion)
chain: EVQLVESGGGLVQPGGSLRLSCAASGSTFSINAMGWFRQAPGKEREFVAGITSSGGYTNYADSVKGRFTISADNSKNTAYLQMNSLKPEDTAVYYCAADGVPEYSDYASGPVWGQGTLVTVSS
Turning to B1, the results for the Kd in experiment [1], in experiment [2] and in experiment [3] were less than 0.016 nM, 2.1 nM and 1.1 nM, respectively.
